The results in this text go back to patent publication US20090197797A1, “USE OF HYALURONIC ACID AS A CARRIER MOLECULE FOR DIFFERENT CLASSES OF THERAPEUTIC ACTIVE AGENTS” (priority 2006, published 2009).

A short description of this data set: storage stability of HA-6-MTX checked by repeated NMR spectrum. It counts as physicochemical. The following applies: 3-months storage at room temperature; compared with freshly prepared product. As for the experimental part:
A solution of HA-OMs:TBA salt from Example 10 (500 mg; 0.73 mmol) in DMSO (15 ml) was treated with a solution of methotrexate (833 mg; 1.83 mmol) in DMSO (10 ml) in the presence of solid cesium carbonate (596 mg; 1.83 mmol). The mixture was stirred under nitrogen at 80° C. for 18 h, whereupon it darkened with formation of solids. It was then cooled to ambient temperature, poured into 100 ml of water (pH 6.5), treated with 15 ml of saturated NaCl solution, and stirred for 1.5 h. Then solids were filtered off and the solution was ultrafiltered, concentrated and freeze-dried to give 131 mg of a yellow-brownish solid. […] HPLC analysis gave 32% w/w, corresponding to 40% mol/mol.

As to “6-O-Methotrexylhyaluronic Acid [Example 24]”, the “NMR spectrum repeated on the same sample after storage (stability of substitution degree)” value was “the substitution degree is maintained and no by-products are formed”.
